This is an account of results in US20230303690A1 (published 2023).

The target of the assay is human LAG3 expressed on cells (human) (UniProt P18627). Nature of the assay: cell-based or functional assay.
Sequence of human LAG3 expressed on cells (human) (P18627 23-525): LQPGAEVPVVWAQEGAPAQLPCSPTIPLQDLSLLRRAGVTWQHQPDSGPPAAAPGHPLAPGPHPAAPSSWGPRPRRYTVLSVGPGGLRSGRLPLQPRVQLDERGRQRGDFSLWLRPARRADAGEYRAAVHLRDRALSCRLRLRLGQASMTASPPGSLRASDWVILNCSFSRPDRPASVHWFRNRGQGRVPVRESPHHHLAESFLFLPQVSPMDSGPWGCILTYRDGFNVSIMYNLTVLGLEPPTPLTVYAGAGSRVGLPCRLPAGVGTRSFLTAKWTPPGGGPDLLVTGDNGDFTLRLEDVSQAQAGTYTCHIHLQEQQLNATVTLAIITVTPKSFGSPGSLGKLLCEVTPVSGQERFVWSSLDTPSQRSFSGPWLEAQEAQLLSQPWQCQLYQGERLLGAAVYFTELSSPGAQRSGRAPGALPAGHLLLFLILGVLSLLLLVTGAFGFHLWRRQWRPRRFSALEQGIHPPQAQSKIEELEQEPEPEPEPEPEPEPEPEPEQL

B1: sdAb fusion 25-17-2 (Fc fusion, not shown: a dimerising Fc or GST)
chain: QLQLVESGGGLVQAGGSLRLSCAASGSIESFSFMGWYRQAPGKQRELVAGFTGAASLSFSTYTDAVKGRFTISRDNAKNTVYLQMNSLKPEDTAVYFCNVDPWSQSWPGRYWGQGTQVTVSSGGGGSGGGGSQLQLVESGGGLVQPGGSLRLSCAASGLTLDGYAIGWFRQAPGKEREGLACISGSDGSTHYLDSVKGRFTISRDNGKNTMALQMNSLQFGDTAIYYCAARRGSCSGSWTYWGQGTQVTVSSEPKSCDKTHTCPPCPAPELLG
As to B1, the Efficacy (Normalized to BMS) amounted to 102%; the IL-2, % of BMS, at 0.001016105 ug/mL is -0.00048%; the IL-2, % of BMS, at 0.003048316 ug/mL was -2.52%; the IL-2, % of BMS, at 0.009144947 ug/mL was -0.621%. In addition, the IL-2, % of BMS, at 0.027434842 ug/mL is 12%; the IL-2, % of BMS, at 0.082304527 ug/mL was -7.68%; the IL-2, % of BMS, at 0.24691358 ug/mL was -2.21%; the IL-2, % of BMS, at 0.740740741 ug/mL is 16.4%. Also, the IL-2, % of BMS, at 2.222222222 ug/mL was determined as 77.7%; the IL-2, % of BMS, at 6.666666667 ug/mL came to 85.1%; the IL-2, % of BMS, at 20 ug/mL was 111%; the Jurkat T-hLAG3 Assay EC50 stood at 14 nM.

B2: sdAb fusion 25-27-2 (Fc fusion, not shown: a dimerising Fc or GST)
chain: QLQLVESGGGLVQAGGSLRLSCAASGSIESFSFMGWYRQAPGKQRELVAGFTGAASLSFSTYTDAVKGRFTISRDNAKNTVYLQMNSLKPEDTAVYFCNVDPWSQSWPGRYWGQGTQVTVSSGGGGSGGGGSQVQLVESGGGLVQPGGSLRLSCAASGFTLDYYAIGWFRQAPGKEREGVSCIRSSDGSTYYADSVKGRFTISSDNTKNTVYLQMNSLKPEDTAVYYCATDRYSDCRGPYENWGQGTQVTVSSEPKSCDKTHTCPPCPAPELLG
For B2, the Efficacy (Normalized to BMS) was 106%; the IL-2, % of BMS, at 0.001016105 ug/mL turned out to be 0.0147%; the IL-2, % of BMS, at 0.003048316 ug/mL stood at 3.76%; the IL-2, % of BMS, at 0.009144947 ug/mL came out at 5.39%. For the same molecule, the IL-2, % of BMS, at 0.027434842 ug/mL was 11.1%; the IL-2, % of BMS, at 0.082304527 ug/mL turned out to be 6.04%; the IL-2, % of BMS, at 0.24691358 ug/mL came out at 17.2%; the IL-2, % of BMS, at 0.740740741 ug/mL turned out to be 62%. Moreover, the IL-2, % of BMS, at 2.222222222 ug/mL was determined as 114%; the IL-2, % of BMS, at 6.666666667 ug/mL was found to be 123%; the IL-2, % of BMS, at 20 ug/mL turned out to be 124%.

B3: sdAb No. 2015 (VHH, part only)
VHH: QLQLVESGGGLAQTGGSLRLSCAAAGFTFDDTATGWFRQAPGKNREGVACISSSDGRIHYIDSAKGRFTISKDNAKKTVYLQMDSLKPEDTAVYYCAAARKGSTDCQGAIWGSWGQGTQVIVSS
modifications: possible Fc not stated
On to B3, for which the IL-2, % of BMS, at 0.005080526 ug/mL stood at 0.0179%; the IL-2, % of BMS, at 0.015241579 ug/mL was determined as 1.06%; the IL-2, % of BMS, at 0.045724737 ug/mL came out at 0.925%; the IL-2, % of BMS, at 0.137174211 ug/mL came out at 1.92%. In addition, the IL-2, % of BMS, at 0.411522634 ug/mL was found to be 1.8%; the IL-2, % of BMS, at 1.234567901 ug/mL was determined as 10.6%; the IL-2, % of BMS, at 3.703703704 ug/mL was determined as 19.1%; the IL-2, % of BMS, at 11.11111111 ug/mL worked out at 33.6%. In addition, the IL-2, % of BMS, at 33.33333333 ug/mL was determined as 39.8% and the IL-2, % of BMS, at 100 ug/mL is 46.6%.

B4: sdAb No. 2018 (VHH, part only)
VHH: QVQLVESGGGLVQPGGSLKLSCTASGFTLDYYAIAWFRQAPGKEREAVSCISSSDGSTRYADSVKGRFTISRDNAKNTVYLQMNSLKPEDTAVYYCAADPYGDCRGPYDYWGQGTQVTVSS
modifications: possible Fc not stated
Consider B4, for which the IL-2, % of BMS, at 0.005080526 ug/mL amounted to 0.0212%; the IL-2, % of BMS, at 0.015241579 ug/mL is 5.32%; the IL-2, % of BMS, at 0.045724737 ug/mL was 2.83%; the IL-2, % of BMS, at 0.137174211 ug/mL amounted to 9.41%. Also, the IL-2, % of BMS, at 0.411522634 ug/mL came to 15.3%; the IL-2, % of BMS, at 1.234567901 ug/mL amounted to 22.8%; the IL-2, % of BMS, at 3.703703704 ug/mL came to 28.6%; the IL-2, % of BMS, at 11.11111111 ug/mL came to 34.6%. For the same molecule, the IL-2, % of BMS, at 33.33333333 ug/mL amounted to 36.9% and the IL-2, % of BMS, at 100 ug/mL is 37%.

B5: sdAb fusion 25-17-1 (Fc fusion, not shown: a dimerising Fc or GST)
chain: QLQLVESGGGLVQAGGSLRLSCAASGSIESFSFMGWYRQAPGKQRELVAGFTGAASLSFSTYTDAVKGRFTISRDNAKNTVYLQMNSLKPEDTAVYFCNVDPWSQSWPGRYWGQGTQVTVSSGGGGSQLQLVESGGGLVQPGGSLRLSCAASGLTLDGYAIGWFRQAPGKEREGLACISGSDGSTHYLDSVKGRFTISRDNGKNTMALQMNSLQFGDTAIYYCAARRGSCSGSWTYWGQGTQVTVSS
As for B5, the Efficacy (Normalized to BMS) worked out at 106%; the IL-2, % of BMS, at 0.001016105 ug/mL amounted to 0.0133%; the IL-2, % of BMS, at 0.003048316 ug/mL worked out at 4.1%; the IL-2, % of BMS, at 0.009144947 ug/mL is -0.836%. Besides, the IL-2, % of BMS, at 0.027434842 ug/mL was -2.73%; the IL-2, % of BMS, at 0.082304527 ug/mL is -5.85%; the IL-2, % of BMS, at 0.24691358 ug/mL was found to be 6.88%; the IL-2, % of BMS, at 0.740740741 ug/mL was determined as 34%. For the same molecule, the IL-2, % of BMS, at 2.222222222 ug/mL was 82.7%; the IL-2, % of BMS, at 6.666666667 ug/mL was determined as 89.2%; the IL-2, % of BMS, at 20 ug/mL amounted to 110%; the Jurkat T-hLAG3 Assay EC50 came to 10.9 nM.

B6: sdAb fusion 25-27-3 (Fc fusion, not shown: a dimerising Fc or GST)
chain: QLQLVESGGGLVQAGGSLRLSCAASGSIESFSFMGWYRQAPGKQRELVAGFTGAASLSFSTYTDAVKGRFTISRDNAKNTVYLQMNSLKPEDTAVYFCNVDPWSQSWPGRYWGQGTQVTVSSGGGGSGGGGSGGGGSQVQLVESGGGLVQPGGSLRLSCAASGFTLDYYAIGWFRQAPGKEREGVSCIRSSDGSTYYADSVKGRFTISSDNTKNTVYLQMNSLKPEDTAVYYCATDRYSDCRGPYENWGQGTQVTVSSEPKSCDKTHTCPPCPAPELLG
For B6, the IL-2, % of BMS, at 0.001016105 ug/mL was found to be 0.0673%; the IL-2, % of BMS, at 0.003048316 ug/mL was -5.25%; the IL-2, % of BMS, at 0.009144947 ug/mL was found to be 2.64%; the IL-2, % of BMS, at 0.027434842 ug/mL was -8.9%. The IL-2, % of BMS, at 0.082304527 ug/mL is -0.289%; the IL-2, % of BMS, at 0.24691358 ug/mL came out at 3.53%; the IL-2, % of BMS, at 0.740740741 ug/mL was found to be 17%; the IL-2, % of BMS, at 2.222222222 ug/mL was found to be 58.4%. The IL-2, % of BMS, at 6.666666667 ug/mL is 120% and the IL-2, % of BMS, at 20 ug/mL turned out to be 168%.

B7: sdAb No. 2093 (VHH, part only)
VHH: QVQLVESGGGLVQPGGSLTLSCVASGFTLDYYTVGWFRQVPGKEREGISCISSSDGSTRYADSVKGRFTISRDNAKNTMSLQMNSLKPEDTAVYYCATPGIHGTSCNTSWKYYGQGTQVTVSS
modifications: possible Fc not stated
Regarding B7, the IL-2, % of BMS, at 0.005080526 ug/mL is -0.00098%; the IL-2, % of BMS, at 0.015241579 ug/mL was -3.19%; the IL-2, % of BMS, at 0.045724737 ug/mL was found to be 5.73%; the IL-2, % of BMS, at 0.137174211 ug/mL came to 0.267%. In addition, the IL-2, % of BMS, at 0.411522634 ug/mL stood at 1.04%; the IL-2, % of BMS, at 1.234567901 ug/mL is 4%; the IL-2, % of BMS, at 3.703703704 ug/mL was found to be 14.9%; the IL-2, % of BMS, at 11.11111111 ug/mL stood at 20%. The IL-2, % of BMS, at 33.33333333 ug/mL is 14.4% and the IL-2, % of BMS, at 100 ug/mL came out at 22.2%.
